Assay results as given in patent US20260117244A1, “INHIBITORY RNA FOR THE CONTROL OF PHYTOPATHOGENS” (priority 2021, published 2026).

B1: 32 (nucleic acid, listed as Golovinomyces orontii)
chain: GGTTCATCACCTCTAAATTTGTGAAGAGGTTTCTAAAAGATTCATCTCATCTCATAGCCAGAATTTAGACGCTGTATAAACGATGTTTGGGTCAGGATGTCCGATCAGAATGTATCCAAGAGTCAAGCGTAAATTCTGCAGGCTAGATGTATTTCGTCCCATCATGAATCGTAGATACAAAAGCGGACCTTTTGGCTATACGATGGCACAGGCGCTCGTTTACATGAAGCATGGTGAACCAGACGATGTACTCTCTCTTCATCGTCACTCCATTACACCTACACTTCCACCAGATTCTATTTTCTTACGGACACTTGCAAGCCCAATCAATCCAGCCGATATCAACCAAATTCAAGGTGTCTATCCGTTAAAACCAGAATTCTCGCCTCTACTTGGTACACCGCTTCCGAGCGCTGTAGGTGGGAATGAAGGCTGTTTTGAAGTTGTTTCACTCGGCTCTTCAGTGACTGATGTTAAGAAAGGCGACTGGGTGGTGGCAAATACCCCTGCACTCGGCACCTGGCGTACGCATTTGGTTGTACAGAAGTCTGATATTTTGCCCGTAGAGAAAAAAGGGTTAACCGCAACACAAGTTTGTACTGCATCGATCAATCCGCGAACAGCTTACTGCATGTTGAATAACATTGAGAAACTGCAGAAAGGTGATTGGTGGATTCAAAATGGAGCCAACAGTAGCGTGGGTCGTGCCGCAATTCAATTGGGAAAGTTATGGGGCTTTAAATCAATAAATGTCATTAGAGATCGACCAGACGTGGTATCTACCGAGTCCTTGCGGGCTGAATTGTTAGAATTAGGTGCTACACATGTTGTCACAGAAACAGAGCTGCTTGACAGAGGCTTTCGAGAGCTCGTGACGAAATGGACTAATGATAATAATAAGGGAATTAGATTAGGCTTGAACTGTGTTGGGGGTAAGTCTACAACGGCATTGGTAAAATTACTCGGGAAAAGAGGTCATTTAATCACATATGGTGGCATGTCTCGACAACCTCTACAACTTCCAACCAGCCGCCTCATATTTGATGATCTACGTTTTAGTGGCTTCTGGATTAGTCGCTGGTCCGTCGATAATCCTCGGGAAAGTCAGCACATGCTCAACAAAGTTCTGGACCTCATTCGTACAGGTTCTTTGAAGGAAACTCCTCATCACGAAATACTCTGGAATTGGGATACTAAGATTCAAGTACTCAATGAAGGAATTAAAGGTGCACTTCAGGGTTATCGAAACGCCAAAAATATTCTTGTTTACGGAGATACATAAATTTTGAGT
modifications: listed as DNA
B2: 64 (nucleic acid, listed as Golovinomyces orontii)
chain: ATGGAGGCATGTGTGATCGACGTGGTGGCTACTAGGGTAGACGATTGCGAAACTCCAGCGTCGAAAGATACCTCCAACGCTTGGTGTCATCCAGGAGCTGCCGCTTTCGATTTTCGCAGTGATGTCTTTACTTCACCGACTTGCTCAATGCTCGAAGCAATCAAAAACACAACCTTACTCGATGATGTCTATCAGGCTGATCCTACCACAAATGATCTGGAATCACACTTGGCAGCGCGCACATCTCATGCCGCAGCACTGTTTGTCTTGTCTGGCACTATGGGGAATCAAATAGCTCTACGTTCTCACTTGCAACAACCACCGTATGCAATTCTTTGCGATCATCGAAGTCATATTTTTCAATGGGAAGCGGGCGGCGTTGCAAGTCTCTGCGGTGCACTTGTCAAAACTGTTGTACCAGCAAACGGTGAGTATCTTACTCGGGAAGATATTGAGAGTAATGTTGTGCTTGGTGATGATATTCATAGTACGCCTACTCGGGTTATATCTCTTGAAAATACACTGGGTGGCATTGTAATACCGCTAGAGGAGACGCGACGTATAACGAATTTTGCTCGAGAAAACAATATCAAGGTTCACCTTGATGGTGCACGATTGTGGGAGGCAGTCGCTGCAGGTGCAGGTTCACTTACCGATTATTGTGCTCTGTTTGATAGTGTAAGTCTATGTTTCTCCAAGGGACTCGGAGCACCAGTCGGCAGTATTTTAGTTGGTGGAGAGGCTTTTATCAAACATGCTAGATGGATAAGAAAGTCGATTGGTGGCGGCCTTCGTCAGCCTGGTCTGTTAACAGCAACAGCCAGGGTTGCTCTGGATGAAACGTTTGGAAGTGGCCCTTGGGGTGAAGGCGGAAAGCTAAAAGGCACTCACTTTGTAGCGAAAAGGATAACTGCACTCTGGACGTCGCTAGGTGGGAAACTACTGAGGAGGACCGAGACAAATATGGTTTGGTTAGATCTTGAGGGTTCTAAGATTAGTGTAGAGACGTTTGTGAAAATTGGAGCAGAGCATGGGGTAGCACTCGAAGGTCCAAGGCTAGTGGTGCATTATCAAATTGAAGACGCTGCAGTAGAGAAGTTAAAAGCAGTTTTTGAACAGGTCCTGCTTAAAACCTAG
modifications: listed as DNA
B3: 70 (nucleic acid, listed as Golovinomyces orontii)
chain: ATGTCAAGATCCCTTCACAATCTGAGCACCATTCAGAAGCTTTTTCCAATCTTGGGACCATCTCAAATTACTTCTAAGTTTTTGCTATGTTCACGTACATTATTTAGGCAGACTCGCTACAGTTCCCAATTTAATTTGGGCTATACCCGGGCCATTGAAAGGAAACCCTTAACTTTAAAGTCTATTGAATCTTTGTACAAAAGAGAGGAGCCCATCTTGGCACTCACTGCCCACGACTTTCCCAGTGGATATATTGCTGATGAAGCTGAGATTGAAATCGTACTTGTGGGAGACAGCCTGGCCATGGTAGCAATGGGGTTAGAAGATACAAGTGAGATTCTACTTGAAGAGATGCTACTCCATTGTCGCTCTGTTTCTCGAGCTGTGAAGACTGCTTTTACGGTAGGGGATCTTCCTATGGGATCCTATGAAGTATCCCCAGAACAGGCTCTAATTTCTGCTATTCGGATGATTAAGGAAGGTAGAGTAAAAGCTATTAAATTAGAAGGAGGCGCAGAAATGGGCCCAACCATAAAGAAAATAGTTACTGCCGGTATTCCGGTTCTCGGGCATATAGGGTTAACTCCGCAACGACAAAATTCTTTGGGCGGCTTCCGAGTACAAGGAAAGACCTCCAAGAGTGCACTCAAGATTCTTGAGGATGCATTAGCCATACAGGAAGCAGGCTGTTTTGCTGTTGTGATTGAGGCTATACCCGCAGAGGTAGCTACCATAATTACAAAGGAACTTTCAATCCCAACTATCGGTATTGGCGCTGGTAATGGCTGTTCAGGCCAAGTACTAGTTCAGGTTGATATGACTGGAAATTTTCCACCCGACCGTTCGATACCAAAATTTGTCAAAAAGTATTGTGACATTTGGAATGAGAGCTTGATGGGGATACGATCATATCGAGAAGAAACTAAGTGTAGGAAGTTTCCCGCACACGAACACACTTACTCAATCCCTAAAAATGAACTTGCTGAGTTCGAGAGAATACTAGCTTCTAAAGAACACTAG
modifications: listed as DNA
B4: 79 (nucleic acid, listed as Golovinomyces orontii)
chain: ATGTCAGCATCTAGCCTTTCTCAGTCTACAGCTGAGAAAAGACACGAAGAATATCAGTATTTAGATCTGATCTCCGAAATAGTAGAGACAGGGGAGCATCGACCAGATCGAACTGGAACTGGAACCTTTTCTTTGTTCGCGCCAAAACCTTTAAAATTCCAGCTTTCTGAATCTGGAAAGCCGATTCTGCCCCTAATTACAACCAGGCGCATCTTCTTACGTGCTGTAATCACCGAACTTCTCTGGTTCATATCCGGCTCGACCTCCTCCATTCCTCTGGTAGAAGCAGGAATAAAGATTTGGGATGGAAATGGAACCCGTGAATATCTTGATTCGGTTGGTTTATCTCATCGTGATGTTGGAGATCTTGGTCCAATATATGGATTCCAATGGCGTCATTTTGGTGCCGACTACGTTGATGCTAACACTGACTATACTGGGAAAGGGGTTGATCAACTCGCTGAAGTTGTTGCAAAACTCAAGACAAATCCATATGACCGCCGCATTATTCTTACAGCCTGGAACCCGCGGGATCTAAAGTCAATGGCTTTACCGCCTTGTCATCTTCTTGCACAATTTTACGTCTCATTCCCACAAGGTAGTAAATCTGTTGGGACTCTTCACTGTCTTTTATATCAGCGTAGCTGCGACATGGGCCTTGGAGTACCATTTAATATTGCAAGCTATGCCTTACTCACTCATATGTTGGCTCATACATGCGAACTACTGCCTGGGACTTTGACGCACACCATGGGTGATGCACATGTCTATGCCGATCATGTTGAGGCTTTAAAAACACAACTGACACGTGAGCCGCGTCCATTCCCTGAAATTGAGATTAGGAAAGAAAAAGGAGGAAGTATAGACGGCTGGCTTGTCGATGATTTTCTCATCAAAGGCTACGAACCGCACAAGTCTATCTCGATGAAGATGTCGGTGTAA
modifications: listed as DNA
B5: 87 (nucleic acid, listed as Golovinomyces orontii)
chain: ATGCCTCTACGAAGAATACTAAAGAAGTCAAAATACGCCAAAAAGAGTCCAGAAGAAGAGACTGTCATAACACCCATCTTATTTATGCGTAGCGACACAAAAACAGAGGAGATTATTTATCCACCTAGTTATCCTGATCATGAAGAATCCTTACGCAGTAAAAAGGGGCGAAACAAGAAGGAAATACCTAGGACCCCTTCGGAATCTCGTAAATCATCTCTTAGACTCAAGCCAAACTTTCTGAAAAACCAGAAATCCGAAAAGGTGCCAGAAAATCTGCCAGATATAGAGATCATTGCTGATCAGGTCGAGAGGAGAATCAGGGCACAATGGGAAAAACGTGCGACAATTCTAGCCAAAAGAAATGAGGAAACAACAGCTAAGTATCTATCAATCACTGACGATAAACATGCAAAGGAGGTGAGAATGGCGAGAGAGCTGGACGAGGCAAATTCGGCCAACGATAACATTATAGAAGCAATTAGACTACATGAAGCGGGGAGCCGGCTGGCGGAGTTCCAAAATGAGAATAATACCCTCAGTCAAGTATTGTACGGTCTTTCTTTAAGGTACGCATGGCTGGGGATGTACTCCAGATCCGGAAAAGGCACTCAAATACCTTCAGCTGCAGCATCGTGTGCAGCCTCAATCGAGGATTTAGCACTTAGGGCGGGGAAGAAAAGTGGAGGAGCAGCGAAAGATGAATTAGTTCTTGCTATTTACGAGCTCGCAAATAGTTTTAGACATGGCTGGGGAATTCCGATCGACCGAGTGGCTGCGAAACAGTACTATGAGACGGCAGCTAATTTGGGTGATACGGACGCTATGAATGAAGTGGCCCGATGTTATGCCGAAGGAATCGGTTGCAAGAAAGACATGTTTGTGGCTGCTAAATACTACAGGATGGCTGAGAGTAAGGGTAACAAAATCATTGGAAACTCCTGGTACGTTGCAATTTTTGCTCTCTAA
modifications: listed as DNA

System: G. orontii MGH1
Assay: Spray-induced gene silencing (SIGS), G. orontii spore production on A. thaliana (whole plant and detached leaf assays)
Assay type: in vivo, Golovinomyces orontii
Settings: topical dsRNA against G. orontii target (Gor Seq ID); detached leaf assay; n>=3

Molecule | G. orontii Spore Production on Arabidopsis, Detached Leaf Assay, % reduction [%]
B1 | 50
B2 | 55
B3 | 46
B4 | 68
B5 | 42
